Data published in publication PMC5577389.

Molecular target: 6xHis-FN1, the first fibronectin type III repeat (FN1) of the neural cell adhesion molecule NCAM
Assay: ITC

Kd: 10.9 µM | dH: 0.991 kcal/mol | stoichiometry N: 1.06
Substance: 6xHis-SUMO-PBR, ST8Sia-IV polybasic region peptide (residues 75-100) fused to an N-terminal 6xHis-SUMO tag (from UniProt Q92187 75-100)
